Test: soluble on expression in E. coli; label from the status in PepcDB or PDB records

Sequence	soluble on expression in E. coli
MPLLDSFKVDHTKMNAPAVRIAKTMLTPKGDNITVFDLRFCIPNKEILSPKGIHTLEHLFAGFMRDHLNGDSIEIIDISPMGCRTGFYMSLIGTPNEQKVSEAWLASMQDVLGVQDQASIPELNIYQCGSYTEHSLEDAHEIAKNVIARGIGVNKNEDLSLDNSLLKGSHHHHHH	soluble
MILAVLQARMGSSRLPGKSMATLQGEPMIVRQLERLRGARCLSKIIVATSQDPADDALAGFLVSRGNTVHRGAGADILARIARCADAISAVSHVVRLKGDAPFMDPGVVDDAVRMALASGADYTSNRVHRTYPAGLEVEVIKAGVLRQAAAEERDPTARISPTAAIRNQPERWRQAHLRAARDCSRLDWRVKTAADLAFARSVYDALHPGDPDFRMGDVLDLLENRQDIARFAALEHHHHHH	not soluble
MKALRGMISEKGGWNLTVNNDNNTVVSSGGALDLSSGSKNLKIVKDGKKNNVTFDVARDLTLKSIKLDGVTLNETGLFIANGPQITASGINAGSQKITGVAEGTDANDAVNFGQLKKIETEVKEQVAASGFVKQDSDTKYLTIGKDTDGDTINIANNKSDKRT	soluble
MNIVIAAVGGQGAVLTSKILGTLAQNLGKDVKVSEVHGMSQRGGSVVAYVKFGDKVYSPVVEKGTADIVLAFEMLEGARYVDYLKENGKLVVNTQRIDPMPVITGDMEYPADLGEKLEELNIGYIPVDALSLAKNAGTIKAVNVALIGVLAQNSNIKKEEWIKAIKDTVPEKFLELNLKAFELGYNLE	soluble
MKTIYIYKGSIPEDKKKGDNAIWVTEKKIIDALEKAANSNGESTQSNPKTIALQAAKKETKKSNKKESKTIGYTTTGYVNADGKHIFDTDRINNERFDRKIIIGATLETLDQSSTLQSGEAIVLPAPGKYKSSDQKTVMTAQGPKIIGIHANAKENEETQKFVNWF	soluble
MSLYHDGPIEVLPGVWLGAEESVGRWDIWAGNTAGNTVRVVNVAQEVEDPFDAAGPGRVSGWPRPSALPAETAKRRMKLRTYPAVVGDGTRPHVEYCHARWSHGELGLADLPADACLGDVLYPRAPENNEGLWRFWETIRWMEEGRQGGTPILIHSQCGVSRSATLAIAYTMALAAAGAMPQYLGHIRVMQDAYDFVKGKSCWIGPNHSLVFQLVDFARNLTTLLSEGHHHHHH	soluble
MGSDKIHHHHHHMADLTDLERTRHLVDLLAPARKTRIVDIGANPINDNPYAPLLDIGAAEVWGFEPQTEAFDKLVARNAPDEHYVNAAVGKGGTGTLNICASSGTSSLLTPNVDAMDAVTGWHKYFEVVGTVDVETKRLDNIAEIPEFDLLKIDVQGAEREVFTYGKKRLSTALAVITEVAAIPLYEDQPLLGDQMVLLGKLGFDLHKFLFWKDVVLRSKYLNGMRRRRMRTQLVDGDAVFVRDLLHLKDMETERLKHLTLLADAVFESFDMVLYCLEILEDRGVLTEAAIRTYVARMPYQRDPQPRLVESVGQ	not soluble
MGSDKIHHHHHHMKVFFVVDIKSGKVVAGKGGERESYPPITAISRLVSSDDALKVIEEIKPRFLYAADLDRIVGLGDNFSLLSKLSKRVEELIADCGFRSPEELEKLPFTPVVGTETFDITQLDRKCYVSLDFKEKFLDASGKFESWEEVVKFLNSFDLYGLIVLPIHAVGAMKPDLSVLTKTLELSEHPVMLGGGISGVEDLERLKEMGCSGVLVATAVHKGKIPLDVVRKGKF	not soluble
MGSDKIHHHHHHDGMGLSQVYLTSMLEGRPLSFMKTPYIGLVKTHSANSWVTDSAAAGTALASGFKTNNGMINILPDGTVVPTIFEVAKTYGVRTGIVVTCRVTHATPAAFYAHVKSRDEENEIARQLVENETVDVVMGGGWANFLPKDLGGKRDDNLNLIELAKEKGYIYVKTREELSKISADSDKILALFAPSHLDPASSRKEQPMLYEMVEKALEILSKDDEPFFLMVEGSQIDWEAHDNDIYGVWKEVVEFDKAVQVALDFALKRGDTLVIVTADHETGGLGLSSGDYRVDVDKIRNFKKTTDWIMANYSPKDREKFKKAIEEYFGLTLSDEDLNRISMSKNPKIELGRILGEKVSVGWTTTTHSGTPVPIFAFGPGAENFTGFLDNTEIPRIIMKLTGYSLQYPLLKEPVTK	not soluble
MSLSKHHIIVKSGSTLEQLAKAKTFAFDKTGTLTQNQLVIQDVLPENGFDKETIQSYAASLEQQSDHIIANSLVQGTDKNLIQAVSNLQESTGNGVSGTVDGKNVMVGKLSYVAPDANVNKAKTTAVYVSVDGKYAGCITFKDRLRPETPQTLARLRKQGAKHIMMLTGDNKDVAQAIADVAGVDDVRASLLPAQKIEAIKNVAPENRPVVMTGDGINDAPSLTAADVGIAMGAKGASAASESADAVIMVNDLSKINDAVAIAKHTMKVAEGHHHHHH	soluble
MGSDKIHHHHHHMFQTLDHFLKSWEFEADATQKLLNSLTDESLKQEITSQNWTLGRIAWHTVAAIGIITSNTDLTFQAPAEDYPVPTSAQFIADSYHQASNAFVQALKTQWTDHTLQERINFIGQQMPNGSLLMFLIQHQNHHRGQMTVLMRQAGLTVPGIYGPAKEEWAKFGLEAPKM	not soluble
MNDITQLRQNVLEKAHQEGQQCLKIATDSLDTDFKERQQQGLHDLKAKRQKELKALEQQFQVAQQQLKNQERQALLALKQDSIKELFEASLEKMTNFSKEEELAFLKQVLSKYPEQPLQVTFGEKTGQKFSSYDCAELRLAFPQLSYNQELIPQEAGFLVSLDQVDDNYLYRYLLESVLKEESSRIIDMLFSEI	not soluble
SPFMFRPRKQVFQTQGAAVSSMAQTLLPNDLASKAMGSAFTALLDANEDAQKAMKIIKTLSSLSDAWENVKETLNNPEFWKQLLSRCVQLIAGMTIAVMHPDPLTLLCLGTLTAAEITSQTSLCEEIAAKFKTIFITPPPRFPTISLFQQQSPLKQVNDIFSLAKNLDWAVKTVEKVVDWFGTWIVQEEKEQTLDQLLQRFPEHAKRISDLRNGMAAYVECKESFDFFEKLYNQAVKEKRTGIAAVCEKFRQKHDHATARCEPVVIVLRGDAGQGKSLSSQVIAQAVSKTIFGRQSVYSLPPDSDFFDGYENQFAAIMDDLGQNPDGSDFTTFCQMVSTTNFLPNMASLERKGTPFTSQLVVATTNLPEFRPVTIAHYPAVERRITFDYSVSAGPVCSKTEAGYKVLDVERAFRPTGEAPLPCFQNNCLFLEKAGLQFRDNRTKEIISLVDVIERAVARIERKKKVLTTVQTLVAQ	soluble
GSMENTDVFLGLHDFLERMRKPSAGDFVKSIKSFIVSFSNNAPDPEKDCAMVQEFFSKMEAAFRAHPLWSGCSEEELDSAGDGLEKYVMTKLFTRVFASNTEEVIADEKLFQKMSLVQQFISPENLDIQPTFQNESSWLLAQKELQKINMYKAPRDKLVCILNCCKVINNLLLNASIASNENAPGADEFLPVLIYVTIKANPPQLHSNLLYIQRYRRESKLVGEAAYFFTNILSAESFISNIDAKSISLDEAEFEKNMESARARISG	soluble
MSEVTRSLLQRWGASLRRGADFDSWGQLVEAIDEYQILARHLQKEAQAQHNNSEFTEEQKKTIGKIATCLELRSAALQSTQSQEEFKLEDLKKLEPILKNILTYNKEFPFDVQPI	soluble
